Measured values from paper PMC5394680.

Biological target: Alexa488-labeled H3-H4 dimer (UniProt P84233)
Experiment: fluorescence polarisation; 5 nM Alexa488-labeled H3-H4 dimer with increasing amounts of CAF-1; 25 mM TRIS pH 7.5, 300 mM NaCl, 5% glycerol, 1 mM EDTA, 0.01% NP-40, 0.01% CHAPS, 1 mM DTT

| Substance | Kd |
| --- | --- |
| tCAF-1 (tCac1 233-606 with Cac2 and Cac3) (from UniProt Q12495 233-606; Q04199 1-449; P13712 1-422) (complex) | 0.5 nM |
| tCAF_∆ac (trimeric tCAF-1 with the acidic region of Cac1 deleted) (from UniProt Q12495 233-606; Q04199 1-449; P13712 1-422) (complex) | 60 nM |
| full-length (FL) yeast CAF-1 complex (from UniProt Q12495 1-606; Q04199 1-449; P13712 1-422) | 0.3 nM |
| Cac3 (small subunit of yeast CAF-1) (from UniProt P13712 1-422) (natural protein) | 77 nM |
| Cac2 (middle subunit of yeast CAF-1), C-terminal His-tag (from UniProt Q04199 1-449) (natural protein) | > 1000 nM |

Now from value to substance:

| Kd | Substance |
| --- | --- |
| 1.3 nM | tCAF_∆3 (tCAF-1 sub-complex lacking the small subunit Cac3) (from UniProt Q12495 233-606; Q04199 1-449) |
| 8 nM | tCAF_Nac (trimeric tCAF-1 with the acidic region of Cac1 replaced by a neutral Gly-Ser-Leu peptide) (from UniProt Q12495 233-606; Q04199 1-449; P13712 1-422) (complex) |
| 25 nM | tCAF_∆2 (tCAF-1 sub-complex lacking the middle subunit Cac2) (from UniProt Q12495 233-606; P13712 1-422) |
